Target: α5β1 integrin, P08648
Experiment: competition ELISA, α5β1-coated plate, inhibition of trimeric spike binding

α5β1 integrin, P08648, sequence (P08648 42-995, chain 1 of 2): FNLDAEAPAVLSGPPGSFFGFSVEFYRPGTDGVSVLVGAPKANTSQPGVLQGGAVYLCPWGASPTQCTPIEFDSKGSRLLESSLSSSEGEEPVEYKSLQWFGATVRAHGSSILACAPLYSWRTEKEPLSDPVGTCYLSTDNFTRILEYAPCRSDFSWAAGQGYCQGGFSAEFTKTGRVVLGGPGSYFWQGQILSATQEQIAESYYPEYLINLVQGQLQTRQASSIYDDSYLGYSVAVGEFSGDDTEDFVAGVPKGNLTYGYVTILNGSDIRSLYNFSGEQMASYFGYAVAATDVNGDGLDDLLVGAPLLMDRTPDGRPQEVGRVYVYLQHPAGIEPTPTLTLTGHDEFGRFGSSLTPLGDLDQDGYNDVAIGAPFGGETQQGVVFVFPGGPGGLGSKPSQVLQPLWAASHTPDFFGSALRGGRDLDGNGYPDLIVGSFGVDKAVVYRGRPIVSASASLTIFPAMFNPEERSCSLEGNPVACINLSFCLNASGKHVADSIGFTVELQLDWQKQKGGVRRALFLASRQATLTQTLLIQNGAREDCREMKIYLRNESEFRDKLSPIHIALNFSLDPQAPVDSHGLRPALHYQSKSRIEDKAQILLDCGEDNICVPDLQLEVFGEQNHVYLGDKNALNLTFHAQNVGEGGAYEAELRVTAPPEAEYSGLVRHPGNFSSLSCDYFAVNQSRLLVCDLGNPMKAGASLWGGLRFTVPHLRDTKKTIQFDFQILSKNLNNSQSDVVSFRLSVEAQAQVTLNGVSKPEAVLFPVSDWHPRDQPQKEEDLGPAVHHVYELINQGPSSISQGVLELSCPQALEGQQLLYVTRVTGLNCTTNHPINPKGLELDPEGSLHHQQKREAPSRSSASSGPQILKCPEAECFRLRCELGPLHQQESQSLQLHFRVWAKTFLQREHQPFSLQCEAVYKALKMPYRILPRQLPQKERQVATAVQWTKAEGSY
α5β1 integrin, P08648, sequence (P05556 21-728, chain 2 of 2, further chain): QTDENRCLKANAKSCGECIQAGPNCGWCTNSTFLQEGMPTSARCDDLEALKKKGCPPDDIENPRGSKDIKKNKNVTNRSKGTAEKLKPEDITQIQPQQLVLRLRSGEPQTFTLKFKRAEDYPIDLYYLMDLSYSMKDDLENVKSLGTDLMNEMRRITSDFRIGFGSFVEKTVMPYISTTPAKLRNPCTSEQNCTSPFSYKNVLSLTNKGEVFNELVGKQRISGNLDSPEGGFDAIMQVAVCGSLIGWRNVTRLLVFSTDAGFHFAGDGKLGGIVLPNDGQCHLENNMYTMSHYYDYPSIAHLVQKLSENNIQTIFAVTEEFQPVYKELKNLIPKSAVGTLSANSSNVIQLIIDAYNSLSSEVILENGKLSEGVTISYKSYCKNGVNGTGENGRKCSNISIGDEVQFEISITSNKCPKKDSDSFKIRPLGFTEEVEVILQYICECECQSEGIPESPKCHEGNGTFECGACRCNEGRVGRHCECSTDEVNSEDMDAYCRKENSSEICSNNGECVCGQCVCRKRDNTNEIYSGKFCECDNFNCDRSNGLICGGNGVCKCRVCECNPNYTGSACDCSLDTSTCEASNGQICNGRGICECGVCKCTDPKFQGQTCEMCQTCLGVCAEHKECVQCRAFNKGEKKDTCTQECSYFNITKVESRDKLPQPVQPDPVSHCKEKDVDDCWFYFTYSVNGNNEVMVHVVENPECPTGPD

PHSCN (modifications not checked) [ATN-161]
most effective dose tested: 100 nM

— patent US20230146939A1, “TREATMENT FOR HUMAN CORONAVIRUS INFECTION” (THE ADMINISTRATORS OF THE TULANE EDUCATIONAL FUND, priority 2020, published 2023)
